From US20050148504A1, “Cysteine protease inhibitor” (priority 2002, published 2005)

Assays:
papain [1] = target: papain (UniProt P00784); assay: cell-based or functional assay
papain [2] = target: T1, papain (Carica papaya, UniProt P00784); assay: cysteine protease inhibitory activity, Z-Phe-Arg-MCA fluorescence method (Barrett et al.), papain; type: biochemical; set-up: purchased Sigma Co., Ltd
T1 sequence (P00784 134-345): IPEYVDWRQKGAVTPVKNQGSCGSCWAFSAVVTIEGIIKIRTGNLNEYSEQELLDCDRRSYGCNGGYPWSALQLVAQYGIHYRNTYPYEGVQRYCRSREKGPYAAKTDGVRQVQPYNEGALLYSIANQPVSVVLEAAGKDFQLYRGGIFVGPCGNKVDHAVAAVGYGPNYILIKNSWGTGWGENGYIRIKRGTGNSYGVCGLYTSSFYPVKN
Method: Casein, a partial peptide of casein, or hydrolysate of casein which can be used for the present invention has inhibitory activity against cysteine proteases such as cathepsin B, L and papain. The cysteine protease inhibitory activity can be determined in accordance with the methods of Barrett et al (Methods in Enzymology, Vol. 80, pp. 535-561, 1981). For example, Z-Phe-Arg-MCA (Benzyloxycarbonyl-L-Phenylalanyl-L-Arginine4-Methyl-Coumaryl-7-Amide: final concentration of […]: manufactured by Peptide Institute, Inc.) is added as a substrate into a solution in which casein, a partial peptide and/or a hydrolysate of casein is dissolved in 0.1 M acetic acid buffer (pH 5.5), and then a cysteine protease (papain in the present Examples: manufactured by Sigma Co., Ltd.) solution (final concentration: 15 units/ml) is added and the whole solution is mixed to allow reaction at 37° C. for 10 minutes. After that, fluorescence intensity (excitation wavelength: 370 nm, emission wavelength: 460 nm) of AMC (7-Amino-4-Methyl-Coumarin) released from the digested substrate is measured with a fluorescence spectrometer (manufactured by Hitachi, Ltd.).
(§1) The inhibitory activity was measured with reference to the method by Barrett et al. (“Methods in Enzymology,” Vol. 80, p 535-561, 1981) as described below. Namely, Z-Phe-Arg-MCA (final concentration of […]: manufactured by Peptide Institute, Inc.) was added as a substrate to a solution containing bovine β-casein peptide mixture dissolved in a 0.1 M acetic acid buffer solution pH 5.5. Then, a cysteine protease (papain in the present test: manufactured by Sigma Co., Ltd.) solution (final concentration: 15 units/ml) was added, the whole solution was mixed and the reaction was carried out at 37° C. for 10 minutes. Subsequently, fluorescence intensity (excitation wavelength: 370 nm, emission wavelength: 460 nm) of AMC released from the digested substrate was measured with a fluorescence spectrometer (manufactured by Hitachi, Ltd.).
Z-Phe-Arg-MCA (final concentration of […]: manufactured by Peptide Institute, Inc.) was added as a substrate into a solution in which a test sample was dissolved in a 0.1 M acetic acid buffer (pH 5.5). Then, a papain solution (final concentration of 15 units/ml) as a cysteine protease solution was added and mixed, and the reaction was performed at 37° C. for 10 minutes. Subsequently, fluorescence intensity (excitation wavelength: 370 nm, emission wavelength: 460 nm) of AMC released from the digested substrate was measured with a fluorescence spectrometer (manufactured by Hitachi, Ltd.).

papain [3] = target: T1, papain; assay: reverse zymography using papain (SDS-polyacrylamide gel containing gelatin); details: 12.5% SDS-polyacrylamide gel with 0.1% gelatin; papain 37° C. 10 hours; FIG. 1 lane 6
cathepsin L = cathepsin L (Homo sapiens, UniProt P07711); assay: cysteine protease inhibitory activity, Z-Phe-Arg-MCA fluorescence method, cathepsin L; type: biochemical; details: concentration of 10^−4 M
Chain of cathepsin L (P07711 114-333, species assumed): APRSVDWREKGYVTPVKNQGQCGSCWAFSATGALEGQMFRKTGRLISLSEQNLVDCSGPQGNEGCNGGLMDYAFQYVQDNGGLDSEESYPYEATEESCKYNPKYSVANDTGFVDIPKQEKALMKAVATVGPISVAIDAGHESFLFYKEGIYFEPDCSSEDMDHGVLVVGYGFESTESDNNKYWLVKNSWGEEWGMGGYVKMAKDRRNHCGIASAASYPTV
Method: as §1
(§2) A spectrum of cysteine protease-inhibitory activity of a test sample was measured in the same way as that of measuring the cysteine protease-inhibitory activity described in the Test Example 3, using bovine β-casein as a test sample, and papain, cathepsin B and cathepsin L as cysteine proteases.

cathepsin B = cathepsin B (Homo sapiens, UniProt P07858); assay: cysteine protease inhibitory activity, Z-Phe-Arg-MCA fluorescence method, cathepsin B; type: biochemical; details: concentration of 10^−4 M
Method: as §1, §2

Molecule: bovine α-casein
- concentration at which papain activity is almost inhibited (papain [1]): 100 µM

Molecule: bovine β-casein peptide: peptide from Leu of 142th residue to His of 160th residue of bovine β-casein (SEQ ID No. 2) (LTDVENLHLPLPLLQSWMH; sig_peptide (1)Oc(15) casein; listed as Bos taurus)
- cysteine protease inhibitory activity (papain), in words (papain [2]; papain 15 units/ml, pH 5.5, 37° C. 10 minutes, concentration not given): having inhibitory activity

Molecule: bovine κ-casein (from UniProt P02668 22-190)
- concentration at which papain is completely inhibited (papain [1]): 10 µM

Molecule: bovine κ-casein: bovine κ-casein used as a test sample
- inhibition of papain, in words (papain [2]; concentration of 10^−5 M): completely inhibit

Molecule: human β-casein peptide: synthesized peptide having amino acid numbers 133 to 151 of SEQ ID No. 1 (human β-casein) (LTDLENLHLPLPLLQPLMQ; sig_peptide (1)Oc(15) casein; listed as Homo Sapiens)
- inhibition of papain, in words (papain [2]; concentration of 10^−4 M): completely inhibits
- inhibition of protease activity of papain (papain [2]; concentration of 10^−5 M): 65%

B1: bovine β-casein: β-casein derived from bovine, amino acid sequence of SEQ ID No. 2 (Swiss-Prot P02666) (protein, listed as Bos taurus)
chain: MKVLILACLVALALARELEELNVPGEIVESLSSSEESITRINKKIEKFQSEEQQQTEDELQDKIHPFAQTQSLVYPFPGPIPNSLPQNIPPLTQTPVVVPPFLQPEVMGVSKVKEAMAPKHKEMPFPKYPVEPFTESQSLTLTDVENLHLPLPLLQSWMHQPHQPLPPTVMFPPQSVLSLSQSKVLPVPQKAVPYPQRDMPIQAFLLYQEPVLGPVRGPFPIIV
modifications: sig_peptide (1)Oc(15) casein
- band in reverse zymography using papain (papain [3]): positive band
- inhibition of papain, in words (papain [2]; concentration of 10^−5 M): completely inhibits
- inhibition of papain, in words (papain [2]; concentration of 10^−5 M, listed as β-casein): completely inhibit
- inhibition of protease activity of cathepsin L, in words (cathepsin L): almost inhibits
- inhibition of protease activity of cathepsin B, in words (cathepsin B): almost inhibits

B2: human β-casein: human β-casein purified by a conventional procedure, amino acid sequence of SEQ ID No. 1 (Swiss-Prot P05814) (protein, listed as Homo Sapiens)
chain: MKVLILACLVALALARETIESLSSSEESITEYKQKVEKVKHEDQQQGEDEHQDKIYPSFQPQPLIYPFVEPIPYGFLPQNILPLAQPAVVLPVPQPEIMEVPKAKDTVYTKGRVMPVLKSPTIPFFDPQIPKLTDLENLHLPLPLLQPLMQQVPQPIPQTLALPPQPLWSVPQPKVLPIPQQVVPYPQRAVPVQALLLNQELLLNPTHQIYPVTQPLAPVHNPISV
modifications: sig_peptide (1)Oc(15) casein
- inhibition of papain, in words (papain [2]; concentration of 10^−5 M): almost completely inhibits
